In article PMC11667226 (Theranostics, 2025):
Non-standard residues stand in square brackets, D forms with d. Residues, ends and D or L forms follow the SMILES beside them. *: point of attachment. X1 = CC1(C)C(=CC=CC=CC=CC2=[N+](CCCCCC(=O)*)c3ccc4ccccc4c3C2(C)C)N(CCCCS(=O)(=O)[O-])c2ccc3ccccc3c21; Cha = N[C@@H](CC1CCCCC1)C(=O)O

How the values were obtained:
[1] = target: T1, uPAR (Homo sapiens, UniProt Q03405); test: Morphological co-localization between FG001 signal, tumor tissue and uPAR expression (Typhoon/Odyssey scan, IHC, H&E)
T1 construct: from tissue
Excerpt: For 5 out of the 16 patients, the resected tumor specimens were cut in half, sliced at the OR, and imaged with the Elevision® imaging system. The specimens underwent routine pathologic processing at the Department of Pathology. The slices were frozen with a Milestone PrestoCHILL cryoembedder/freezer and, cut into 8 µm tissue slices with a Leica® CM1860 Cryostat and placed on glass slides. To evaluate the overlap between fluorescence signal from FG001, uPAR-expression, and tumor tissue, the cryosections were first fluorescently scanned with an Amersham Typhoon^TM scanner from Cytiva and, thereafter, stained using immunohistochemistry for uPAR and Cytokeratin (CK), and hematoxylin and eosin (H&E) stained. The Typhoon^TM scanner settings were PMT: 350-500 V and excitation wavelength: 785 nm. The immunohistochemical staining for uPAR was performed with the antibody GTX100467 (Gentex, USA), and Cytokeratin with M351529-2 Dako (Agilent). The H&E stain was performed according to standard practice. All tissue slides were scanned with the high-resolution AxioScan 7 (Zeiss, Germany). […]
The different stained tissue sections were aligned using the BigWarp plugin in Fiji (NIH, open-source version: 1.54f) software. A pathologist delineated the tumors, and the fluorescence imaging generated from the Typhoon scanner was overlayed on the HE stains using ImageJ (NIH, open source), (see Figure 3M).

[2] = 40 patients with malignant glioblastoma, 1 to 48 mg; ref [15],[33]; cited from earlier work

T1 sequence (Q03405 23-335): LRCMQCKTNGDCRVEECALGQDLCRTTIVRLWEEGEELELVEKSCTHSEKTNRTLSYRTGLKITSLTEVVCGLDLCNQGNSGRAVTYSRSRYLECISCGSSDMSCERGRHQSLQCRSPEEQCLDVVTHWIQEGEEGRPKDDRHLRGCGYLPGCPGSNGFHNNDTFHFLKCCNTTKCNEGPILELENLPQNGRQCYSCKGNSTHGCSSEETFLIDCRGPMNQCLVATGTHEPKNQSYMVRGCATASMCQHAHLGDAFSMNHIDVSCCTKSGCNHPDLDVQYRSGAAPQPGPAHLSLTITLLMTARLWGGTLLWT

CC(C)C[C@H](NC(=O)[C@H](Cc1ccc(O)cc1)NC(=O)[C@@H](CCCNC(=N)N)NC(=O)[C@@H](CO)NC(=O)[C@H](Cc1ccccc1)NC(=O)[C@H](CC1CCCCC1)NC(=O)[C@H](CC(=O)O)NC(=O)[C@H](CCC(=O)O)NC(=O)[C@H](CCC(=O)O)NC(=O)CCCCC[N+]1=C(C=CC=CC=CC=C2N(CCCCS(=O)(=O)[O-])c3ccc4ccccc4c3C2(C)C)C(C)(C)c2c1ccc1ccccc21)C(=O)N[C@@H](Cc1c[nH]c2ccccc12)C(=O)N[C@@H](CO)C(=O)O [FG001, ICG-Glu-Glu-AE105] (X1-EED[Cha]F[dS][dR]YLWS-OH; N-terminus and C-terminus assumed)
Optical signal in resected cancer tissues after formalin fixation and paraffin embedding ([1]; days following surgery): preserved | Co-localization between uPAR-expression and FG001 fluorescence signal ([1]; microscopic fluorescence imaging, tumor cross-sections of 5 patients across the 3 dose cohorts): high level of co-localization | Grade I drug-related adverse events, number [2]: 3 | Grade II drug-related adverse events, number [2]: 1 | Safety and tolerability [2]: safe and well-tolerated
